The source of these data is publication PMC11565396 (Journal of Lipid Research, 2024).

This data set concerns the molecule itself. The experiment in a line: SEC.

B1: 6xHis-VP40 (recombinant full-length EBOV VP40, dimer) (natural protein)
chain: MRRVILPTAPPEYMEAIYPVRSNSTIARGGNSNTGFLTPESVNGDTPSNPLRPIADDTIDHASHTPGSVSSAFILEAMVNVISGPKVLMKQIPIWLPLGVADQKTYSFDSTTAAIMLASYTITHFGKATNPLVRVNRLGPGIPDHPLRLLRIGNQAFLQEFVLPPVQLPQYFTFDLTALKLITQPLPAATWTDDTPTGSNGALRPGISFHPKLRPILLPNKSGKKGNSADLTSPEKIQAIMTSLQDFKIVPIDPTKNIMGIEVPETLVHKLTGKKVTSKNGQPIIPVLLPKYIGLDPVAPGDLTMVITQDCDTCHSPASLPAVIEK
Consider B1, for which the binding result is listed as “binds”.
